Results on 3 molecules are retold here after PMC3733153 (Journal of Experimental Botany, 2013).

For this assay, the target named is T1, GST-GDI1(3D), phosphomimetic form GDI1 S45D S48D T52D (Arabidopsis, UniProt Q9SFC6 1-240, S45D | S48D | T52D).
T1 sequence: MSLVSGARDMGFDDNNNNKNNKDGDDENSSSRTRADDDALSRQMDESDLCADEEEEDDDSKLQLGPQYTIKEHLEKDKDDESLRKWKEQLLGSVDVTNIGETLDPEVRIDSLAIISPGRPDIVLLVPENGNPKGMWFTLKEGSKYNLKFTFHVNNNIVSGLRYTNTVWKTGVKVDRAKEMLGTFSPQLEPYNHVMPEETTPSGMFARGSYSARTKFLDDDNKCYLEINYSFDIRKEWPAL
In words: pull-down.

B1: His-ROP6 (natural protein)
chain: not shown
As for B1, the binding result is recorded as “binds”.

B2: His-ROP2 (natural protein)
chain: not shown
With B2, the binding result is “binds”.

B3: His-ROP10 (natural protein)
chain: not shown
On to B3, for which the binding result is reported as “binds”.
